The values that follow are results of earlier work, collected in PMC4896244.

As a reminder, the Kd is the equilibrium constant for the complex coming apart.

This data set concerns the target Connexin 43 CT (UniProt P23242).
Sequence of UniProt P23242 (P23242 255-382): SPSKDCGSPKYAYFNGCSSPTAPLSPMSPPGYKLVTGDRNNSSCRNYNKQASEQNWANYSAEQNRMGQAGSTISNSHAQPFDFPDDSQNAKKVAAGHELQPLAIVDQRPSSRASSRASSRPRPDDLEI

On to CIP75 UBA (from UniProt Q99NB8), for which the Kd was 300 µM.
